Numbering of substitutions follows the chain as printed.
B1: 16-B-03: humanized antibody binding human iRhom2; HCVD SEQ ID NO 1, LCVD SEQ ID NO 5 (antibody, V domains shown)
VH: QVTLRESGPALVKPTQTLTLTCTFSGFSLSTFALGVGWIRQPPGKALEWLAHIWWDDDKYYNPALKSRLTISKDTSKNQVVLTITNMDPVDTATYYCARITTYYYGMDYWGQGTLVTVSS
VL: EIVMTQSPDFQSVTPKEKVTITCRASQSIGNHLHWYQQKPDASPKLLIKYASQSISGVPSRFSGSGSGTDFTLTINSLEAEDAATYFCQQSYQWPLTFGQGTKLEIK
modifications: antibody sequences
B2: 16-B-05: humanized antibody binding human iRhom2; HCVD SEQ ID NO 9, LCVD SEQ ID NO 13 (antibody, V domains shown)
VH: B1 VH with D57E
VL: B1 VL with Q93N
modifications: antibody sequences
B3: 16-B-07: humanized antibody binding human iRhom2; HCVD SEQ ID NO 17, LCVD SEQ ID NO 21 (antibody, V domains shown)
VH: B1 VH with D57E
VL: B1 VL
modifications: antibody sequences
B4: 23-B-04: humanized antibody binding human iRhom2; HCVD SEQ ID NO 25, LCVD SEQ ID NO 29 (antibody, V domains shown)
VH: QVTLRESGPALVKPTQTLTLTCTFSGFSLSTFGMGVGWIRQPPGKALEWLAHIWWDDEKYYNSALKSRLTISKDTSKNQVVLTITNMDPVDTATYYCARISNYGSNYWYFNVWGQGTLVTVSS
VL: AIQLTQSPSSLSASVGDRVTITCRASSSVSYMYWYQQKPGKAPKVLIYDTSNLASGVPSRFSGSGSGTDYTLTISSLQPEDFATYYCQQWNAYPLTFGQGTKLEIK
modifications: antibody sequences
B5: 42-B-04: humanized antibody binding human iRhom2; HCVD SEQ ID NO 41, LCVD SEQ ID NO 45 (antibody, V domains shown)
VH: B4 VH with M34R, S101Q, N111D
VL: B4 VL with S28R, V29I, Y33F
modifications: antibody sequences
B6: 42-B-02: humanized antibody binding human iRhom2; HCVD SEQ ID NO 33, LCVD SEQ ID NO 37 (antibody, V domains shown)
VH: B4 VH with M34R, S101Q, N111D
VL: B4 VL with S28R, V29I, Y33F, A92S
modifications: antibody sequences

Target: T1, rhesus monkey iRhom2 (Macaca mulatta, UniProt F6Y4X6)
T1 construct: pMSCV-rhesus-iR2-FL-WT-T7 encoding rhesus monkey iRhom2 full length wild type; expressed in transfected cells; host or cells: immortalized iRhom1/2-/- DKO mouse embryonic fibroblasts, pMSCV retroviral infection
T1 sequence (F6Y4X6 1-827): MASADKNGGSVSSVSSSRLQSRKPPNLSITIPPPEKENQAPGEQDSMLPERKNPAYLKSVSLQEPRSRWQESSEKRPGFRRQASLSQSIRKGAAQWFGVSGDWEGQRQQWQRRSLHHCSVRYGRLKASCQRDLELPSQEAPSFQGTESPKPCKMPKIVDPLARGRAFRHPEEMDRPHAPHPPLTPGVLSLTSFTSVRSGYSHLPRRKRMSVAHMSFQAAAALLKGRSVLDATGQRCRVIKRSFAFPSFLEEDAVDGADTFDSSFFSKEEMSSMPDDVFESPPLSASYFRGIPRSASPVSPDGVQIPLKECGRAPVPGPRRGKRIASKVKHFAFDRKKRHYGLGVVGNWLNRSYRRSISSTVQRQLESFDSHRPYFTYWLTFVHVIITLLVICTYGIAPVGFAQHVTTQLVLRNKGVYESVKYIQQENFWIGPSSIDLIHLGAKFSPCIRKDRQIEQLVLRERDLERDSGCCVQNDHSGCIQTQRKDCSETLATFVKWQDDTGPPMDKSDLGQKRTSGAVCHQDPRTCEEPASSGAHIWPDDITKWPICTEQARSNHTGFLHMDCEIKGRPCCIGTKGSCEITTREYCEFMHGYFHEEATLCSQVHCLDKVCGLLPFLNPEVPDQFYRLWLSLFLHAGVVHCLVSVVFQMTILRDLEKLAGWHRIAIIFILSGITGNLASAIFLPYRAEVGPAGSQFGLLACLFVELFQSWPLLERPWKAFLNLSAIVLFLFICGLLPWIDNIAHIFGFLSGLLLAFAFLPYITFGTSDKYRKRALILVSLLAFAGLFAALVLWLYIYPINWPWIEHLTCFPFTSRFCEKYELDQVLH
Assay: FACS cross-reactivity on MEF-DKO-Rhesus-iR2-FL-WT-T7 cells
Type: binding
Details: antibody at 3 μg/ml
Description: Next, iRhom1/2−/− DKO MEFs stably expressing a tagged form of rhesus monkey, cynomolgus monkey, dog or rabbit iRhom2 were generated in order to determine cross-reactivity of the antibodies of the invention with the respective orthologue of iRhom2. iRhom1/2−/− DKO MEFs stably expressing a tagged form of rhesus monkey, cynomolgus monkey, dog or rabbit iRhom1 were generated to confirm specificity for iRhom2 versus iRhom1 of these species.
In brief, on day 1, Phoenix-ECO cells (American Type Culture Collection, USA) were seeded on 6-well tissue culture plates (Greiner, Germany) in standard growth medium at 8×10^5 cells per well and kept overnight at 37° C., 5% CO2. On day 2, the medium was replaced by fresh medium supplemented with chloroquine (Sigma-Aldrich, USA) at a final concentration of 25 μM. Applying the calcium phosphate method, cells were transfected with 2 μg/ml of pMSCV (Clontech, USA) empty vector, pMSCV-rhesus-iR2-FL-WT-T7 encoding rhesus monkey iRhom2 full length wild type C-terminally tagged with 3 consecutive copies of the T7 epitope, pMSCV-cyno-iR2-FL-WT-T7 encoding cynomolgus monkey iRhom2 full length wild type C-terminally tagged with 3 consecutive copies of the T7 epitope, pMSCV-dog-iR2-FL-WT-T7 encoding dog iRhom2 full length wild type C-terminally tagged with 3 consecutive copies of the T7 epitope or pMSCV-rabbit-iR2-FL-WT-T7 encoding rabbit iRhom2 full length wild type C-terminally tagged with 3 consecutive copies of the T7 epitope, respectively, and were kept at 37° C., 5% CO2. After 7 hours, the transfections were stopped by replacing cell supernatants with standard growth medium lacking chloroquine, and cells were incubated at 37° C., 5% CO2 to allow virus production overnight. In parallel, immortalized iRhom1/2−/− DKO MEFs as target cells for retroviral infection were seeded on 6-well tissue culture plates (Greiner, Germany) in standard growth medium at 1×10^5 cells per well and were also kept overnight at 37° C., 5% CO2. On day 3, the supernatants of Phoenix-ECO cells releasing pMSCV, pMSCV-rhesus-iR2-FL-WT-T7, pMSCV-cyno-iR2-FL-WT-T7, pMSCV-dog-iR2-FL-WT-T7 or pMSCV-rabbit-iR2-FL-WT-T7 ecotrophic virus, respectively were collected, filtered with 0.45 μm CA filters, and supplemented with 4 μg/ml of polybrene (Sigma-Aldrich, USA). Upon removal of medium from the immortalized iRhom1/2−/− DKO MEFs, the virus containing supernatants were added to the target cells for 4 hours at 37° C., 5% CO2 for first infection. Simultaneously, Phoenix-ECO cells were re-incubated with fresh medium, which, after another 4 hours, was filtered and used for the second infection of the respective target cell populations, again in the presence of 4 μg/ml of polybrene. Likewise, a third, but overnight infection cycle was performed. On day 4, virus containing cell supernatants were replaced by fresh standard growth medium. From day 5 onwards, cells were grown in the presence of 2 mg/ml of geneticin (G418, Thermo Fisher Scientific, USA) for the selection of immortalized MEF-DKO-EV control cells stably infected with pMSCV empty vector, pMSCV-rhesus-iR2-FL-WT-T7 cells stably expressing rhesus monkey iRhom2 full length wild type C-terminally tagged with 3 consecutive copies of the T7 epitope, pMSCV-cyno-iR2-FL-WT-T7 cells stably expressing cynomolgus monkey iRhom2 full length wild type C-terminally tagged with 3 consecutive copies of the T7 epitope, pMSCV-dog-iR2-FL-WT-T7 cells stably expressing dog iRhom2 full length wild type C-terminally tagged with 3 consecutive copies of the T7 epitope or pMSCV-rabbit-iR2-FL-WT-T7 cells stably expressing rabbit iRhom2 full length wild type C-terminally tagged with 3 consecutive copies of the T7 epitope, respectively. Upon propagation, cells were stocked for future usage. In parallel, iRhom1/2−/− DKO MEFs stably expressing a tagged form of rhesus monkey, cynomolgus monkey, dog or rabbit iRhom1 were generated in an analogous manner. […]

Molecule	binding to rhesus monkey iRhom2 on MEF-DKO-Rhesus-iR2-FL-WT-T7 cells
B1	Strong binding
B2	recognize rhesus monkey iRhom2
B3	recognize rhesus monkey iRhom2
B4	recognize rhesus monkey iRhom2
B5	recognize rhesus monkey iRhom2
B6	recognize rhesus monkey iRhom2

Source: patent publication US12404345B2, “Humanized antibodies against iRHOM2” (SCIRHOM GMBH, priority 2021, dated 2025)
